Laboratory results published in patent publication US20250144178A1 (KANAPH THERAPEUTICS, published 2025).
Substitutions are numbered along the chain they refer to. Blank lines part the entries; values can stand above or below the binder they belong to.

Key:
[1] = biological target: T1, mouse FAP (fibroblast activation protein alpha) overexpressed in B16F10 cells (B16F10-mFAP) (mouse, UniProt P97321 1-761); test: flow cytometry on B16F10-mFAP cells, detection with anti-mouse IgG2a antibody
T1 construct: whole, on cells; also called mouse FAP-expressing cell line
T1 sequence (looked up): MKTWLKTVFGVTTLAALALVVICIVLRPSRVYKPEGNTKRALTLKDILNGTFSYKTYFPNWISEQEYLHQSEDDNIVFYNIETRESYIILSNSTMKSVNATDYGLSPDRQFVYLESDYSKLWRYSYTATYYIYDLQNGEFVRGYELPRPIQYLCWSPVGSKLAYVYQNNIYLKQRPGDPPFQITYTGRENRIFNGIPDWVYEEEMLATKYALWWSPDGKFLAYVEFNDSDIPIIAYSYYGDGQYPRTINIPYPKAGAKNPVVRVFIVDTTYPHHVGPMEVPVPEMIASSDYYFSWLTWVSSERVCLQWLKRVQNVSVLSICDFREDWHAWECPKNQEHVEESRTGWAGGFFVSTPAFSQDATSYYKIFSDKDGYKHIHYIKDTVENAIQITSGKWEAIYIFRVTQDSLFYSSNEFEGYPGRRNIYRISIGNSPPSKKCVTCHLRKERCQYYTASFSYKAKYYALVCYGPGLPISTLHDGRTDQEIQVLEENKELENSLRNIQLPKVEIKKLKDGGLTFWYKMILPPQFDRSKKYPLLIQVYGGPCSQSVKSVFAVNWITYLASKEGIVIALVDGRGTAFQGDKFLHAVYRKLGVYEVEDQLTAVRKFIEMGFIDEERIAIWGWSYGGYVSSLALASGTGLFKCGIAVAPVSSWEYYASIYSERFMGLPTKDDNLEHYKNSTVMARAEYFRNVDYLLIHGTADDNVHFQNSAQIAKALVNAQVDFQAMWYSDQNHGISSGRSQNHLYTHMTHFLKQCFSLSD
Description: (§1) Specifically, the cell line was prepared by suspending in a FACS buffer solution at 1×10⁵ cells/100 μl, and treated with 1 μg of each T1.12m, T1.01m, T1.02m and T1.03m. The cells were washed twice with a FACS buffer solution. The cells were stained with an anti-mouse IgG2a antibody (Biolegend). The negative control was stained only with an anti-mouse IgG2a antibody (Biolegend). The expression rate of the stained cells was measured using BD LSR and analyzed using a FlowJo software.

B16F10 = biological target: T2, B16F10; test: flow cytometry on parental B16F10 cells, detection with anti-mouse IgG2a antibody
T2 construct: not a protein target; also called parental B16F10 cells, without the transduced mouse FAP gene
Description: as §1

[2] = biological target: T1, mouse FAP (fibroblast activation …); test: flow cytometry on B16F10-mFAP cells, 1 µg protein per 1x10^5 cells, anti-mouse IgG2a detection
Description: as §1

recombinant mouse FAP [3] = biological target: T3, recombinant mouse FAP (mouse, UniProt P97321 26-761); test: SPR, fusion protein captured by anti-mouse IgG (Fc) on a CM5 chip, mouse FAP as analyte 1.5625-100 nM, 1:1 binding model
T3 construct: Soluble analyte in SPR
T3 sequence (looked up): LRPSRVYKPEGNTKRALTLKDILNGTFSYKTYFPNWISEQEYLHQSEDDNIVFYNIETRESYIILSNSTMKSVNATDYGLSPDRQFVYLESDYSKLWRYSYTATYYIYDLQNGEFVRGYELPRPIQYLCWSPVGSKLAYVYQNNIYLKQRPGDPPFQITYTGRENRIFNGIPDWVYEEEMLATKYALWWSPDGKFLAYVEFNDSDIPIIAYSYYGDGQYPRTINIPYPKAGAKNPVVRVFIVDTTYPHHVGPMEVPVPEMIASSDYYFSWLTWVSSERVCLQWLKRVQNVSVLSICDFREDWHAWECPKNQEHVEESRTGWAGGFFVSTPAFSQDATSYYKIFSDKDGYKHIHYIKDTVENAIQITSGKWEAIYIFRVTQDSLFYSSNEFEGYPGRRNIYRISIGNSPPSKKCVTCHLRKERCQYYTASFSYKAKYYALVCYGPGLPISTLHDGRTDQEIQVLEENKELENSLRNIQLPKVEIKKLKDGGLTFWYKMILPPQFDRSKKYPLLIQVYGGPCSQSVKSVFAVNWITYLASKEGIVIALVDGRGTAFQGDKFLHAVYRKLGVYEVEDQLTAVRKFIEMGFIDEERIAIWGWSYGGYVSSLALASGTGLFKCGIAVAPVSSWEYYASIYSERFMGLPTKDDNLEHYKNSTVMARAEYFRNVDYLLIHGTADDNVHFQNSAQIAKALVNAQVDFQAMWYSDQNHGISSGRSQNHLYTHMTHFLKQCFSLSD

recombinant mouse FAP [4] = biological target: T3, recombinant mouse FAP; test: SPR, fusion protein captured by anti-mouse IgG (Fc) on a CM5 chip, mouse FAP as analyte 1.5625-200 nM, 1:1 binding model
Description: The surface of the CM5 chip was activated with a 1:1 mixture of […] (N-hydroxysuccinimide) and […] (1-Ethyl-3-(3-dimethylaminopropyl) carbodiimide), and 25 μg/ml of anti-mouse IgG (Fc) antibody was immobilized for 400 seconds at a rate of 10 μl/min. The remaining active ester groups were blocked with 1 M ethanolamine. T1.01m, T1.02m and T1.03m were diluted to 2 μg/ml and reacted on the CM5 chip immobilized with the anti-mouse IgG (Fc) antibody. The recombinant mouse FAP was diluted to 200 nM in 1×HBS-EP+buffer solution and diluted by serial dilution. The diluted recombinant mouse FAP was reacted at a rate of 30 μl/min. The association and dissociation times were 180 seconds and 400 seconds, respectively. After the dissociation, stabilization was performed for 60 seconds, and then a regeneration was performed for 30 seconds with a 10 mM glycine pH 1.5 solution at a rate of 30 μl/min.

B1: T1.02m (anti-mu FAP/mu IL-12 mut1, mu IgG2a DANG) (bispecific antibody)
heavy: QVQLQQSGAELARPGASVNLSCKASGYTFTNNGINWLKQRTGQGLEWIGEIYPRSTNTLYNEKFKGKATLTADRSSNTAYMELRSLTSEDSAVYFCARTLTAPFAFWGQGTLVTVSAAKTTAPSVYPLAPVCGDTTGSSVTLGCLVKGYFPEPVTLTWNSGSLSSGVHTFPAVLQSDLYTLSSSVTVTSSTWPSQSITCNVAHPASSTKVDKKIEPRGPTIKPCPPCKCPAPNLLGGPSVFIFPPKIKDVLMISLSPIVTCVVVAVSEDDPDVQISWFVNNVEVHTAQTQTHREDYGSTLRVVSALPIQHQDWMSGKEFKCKVNNKDLPAPIERTISKPKGSVRAPQVYVLPPPEEEMTKKQVTLWCMVTDFMPEDIYVEWTNNGKTELNYKNTEPVLDSDGSYFMYSKLRVEKKNWVERNSYSCSVVHEGLHNHHTTKSFSRTPGK
light: QIVLTQSPAIMSASPGEKVTMTCSASSGVNFMHWYQQKSGTSPKRWIFDTSKLASGVPARFSGSGSGTSYSLTISSMEAEDAATYYCQQWSFNPPTFGGGTKLEIKRADAAPTVSIFPPSSEQLTSGGASVVCFLNNFYPKDINVKWKIDGSERQNGVLNSWTDQDSKDSTYSMSSTLTLTKDEYERHNSYTCEATHKTSTSPIVKSFNRNEC
chain: MWELEKDVYVVEVDWTPDAPGETVNLTCDTPEEDDITWTSDQRHGVIGSGKTLTITVKEFLDAGQYTCHKGGETLSHSHLLLHKKENGIWSTEILKNFKNKTFLKCEAPNYSGRFTCSWLVQRNMDLKFNIKSSSSSPDSRAVTCGMASLSAEKVTLDQRDYEKYSVSCQEDVTCPTAEETLPIELALEARQQNKYENYSTSFFIRDIIKPDPPKNLQMKPLKNSQVEVSWEYPDSWSTPHSYFSLKFFVRIQRAKEKMAETEEGCNQKGAFLVEKTSTEVQCKGGNVCVQAQDRYYNSSCSKWACVPCRVRSGGGGSGGGGSGGGGSRVIPVSGPARCLSQSRNLLKTTDDMVKTAREKLKHYSCTAEDIDHEDITRDQTSTLKTCLPLELHKNESCLATRETSSTTRGSCLPPQKTSLMMTLCLGSIYEDLKMYQTEFQAINAALQNHNHQQIILDKGMLVAIDELMQSLNHNGETLRQKPPVGEADPYRVKMKLCILLHAFSTRVVTINRVMGYLSSAGGGGSGGGGSEPRGPTIKPCPPCKCPAPNLLGGPSVFIFPPKIKDVLMISLSPIVTCVVVAVSEDDPDVQISWFVNNVEVHTAQTQTHREDYGSTLRVVSALPIQHQDWMSGKEFKCKVNNKDLPAPIERTISKPKGSVRAPQVYVLPPPEEEMTKKQVTLSCAVTDFMPEDIYVEWTNNGKTELNYKNTEPVLDSDGSYFMVSKLRVEKKNWVERNSYSCSVVHEGLHNHHTTKSFSRTPGK
notes: Mouse surrogate, knob-in-hole heterodimer
percent of cells in the positive gate (mFAP-PE) [1]: 92.1% | percent of cells in the positive gate (mFAP-PE) (B16F10): 1.37% | percent of cells bound [2]: ≥ 99% | Kd (recombinant mouse FAP [3]): 1.53 nM | koff (recombinant mouse FAP [3]): 0.00014 s⁻¹ | kon (recombinant mouse FAP [3]): 91500 M⁻¹ s⁻¹

B4: T1.01m (anti-mu FAP/mu IL-12, mu IgG2a DANG) (bispecific antibody)
heavy: B1 heavy
light: B1 light
chain: B1 chain with A255K, A260K
notes: as for B1
percent of cells in the positive gate (mFAP-PE) [1]: 93.7% | percent of cells in the positive gate (mFAP-PE) (B16F10): 2.41% | percent of cells bound [2]: ≥ 99% | Kd (recombinant mouse FAP [3]): 1.51 nM | koff (recombinant mouse FAP [3]): 6.75e-05 s⁻¹ | kon (recombinant mouse FAP [3]): 44700 M⁻¹ s⁻¹

The next lines start with the values.

percent of cells in the positive gate (mFAP-PE) [1]: 92.6% | percent of cells in the positive gate (mFAP-PE) (B16F10): 1.97% | percent of cells bound [2]: ≥ 99%
B2: T1.12m (anti-mu FAP/null, mu IgG2a DANG) (antibody)
heavy: B1 heavy
light: B1 light
chain: EPRGPTIKPCPPCKCPAPNLLGGPSVFIFPPKIKDVLMISLSPIVTCVVVAVSEDDPDVQISWFVNNVEVHTAQTQTHREDYGSTLRVVSALPIQHQDWMSGKEFKCKVNNKDLPAPIERTISKPKGSVRAPQVYVLPPPEEEMTKKQVTLSCAVTDFMPEDIYVEWTNNGKTELNYKNTEPVLDSDGSYFMVSKLRVEKKNWVERNSYSCSVVHEGLHNHHTTKSFSRTPGK
notes: One-armed anti-mouse FAP antibody without IL-12; control

percent of cells in the positive gate (mFAP-PE) [1]: 91.6% | percent of cells in the positive gate (mFAP-PE) (B16F10): 0.89% | percent of cells bound [2]: ≥ 99% | Kd (recombinant mouse FAP [4]): 1.25 nM | koff (recombinant mouse FAP [4]): 7.66e-05 s⁻¹ | kon (recombinant mouse FAP [4]): 61200 M⁻¹ s⁻¹
B3: T1.03m (anti-mu FAP/mu IL-12 mut2, mu IgG2a DANG) (bispecific antibody)
heavy: B1 heavy
light: B1 light
chain: B1 chain with R254A, K256A
notes: as for B1
